Experimental data taken from publication PMC7211993.

Molecular target: MDA-modified bovine serum albumin (bovine), P02769
Experiment: MST; microscale thermophoresis with both binding partners in fluid phase
Details: remark: other sources report otherwise

Sequence of MDA-modified bovine serum albumin (bovine), P02769 (P02769 25-607): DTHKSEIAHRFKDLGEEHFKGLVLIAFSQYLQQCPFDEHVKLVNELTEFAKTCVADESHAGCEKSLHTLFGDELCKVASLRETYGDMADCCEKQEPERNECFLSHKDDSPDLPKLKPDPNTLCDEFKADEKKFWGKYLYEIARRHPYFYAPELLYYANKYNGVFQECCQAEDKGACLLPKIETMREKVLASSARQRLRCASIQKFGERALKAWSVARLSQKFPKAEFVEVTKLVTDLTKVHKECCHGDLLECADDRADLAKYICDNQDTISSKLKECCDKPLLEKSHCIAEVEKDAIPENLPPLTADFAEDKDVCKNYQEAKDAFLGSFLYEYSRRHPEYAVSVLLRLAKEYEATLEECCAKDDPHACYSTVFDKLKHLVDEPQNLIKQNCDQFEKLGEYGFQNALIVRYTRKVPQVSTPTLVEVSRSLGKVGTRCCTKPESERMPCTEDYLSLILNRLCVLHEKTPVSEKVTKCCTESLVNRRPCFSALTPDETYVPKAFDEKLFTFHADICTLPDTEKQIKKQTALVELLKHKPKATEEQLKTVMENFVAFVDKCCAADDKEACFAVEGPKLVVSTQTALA

Kd: 2440 nM
B1: complement factor H, P08603 19-1231 (natural protein)
chain: EDCNELPPRRNTEILTGSWSDQTYPEGTQAIYKCRPGYRSLGNVIMVCRKGEWVALNPLRKCQKRPCGHPGDTPFGTFTLTGGNVFEYGVKAVYTCNEGYQLLGEINYRECDTDGWTNDIPICEVVKCLPVTAPENGKIVSSAMEPDREYHFGQAVRFVCNSGYKIEGDEEMHCSDDGFWSKEKPKCVEISCKSPDVINGSPISQKIIYKENERFQYKCNMGYEYSERGDAVCTESGWRPLPSCEEKSCDNPYIPNGDYSPLRIKHRTGDEITYQCRNGFYPATRGNTAKCTSTGWIPAPRCTLKPCDYPDIKHGGLYHENMRRPYFPVAVGKYYSYYCDEHFETPSGSYWDHIHCTQDGWSPAVPCLRKCYFPYLENGYNQNYGRKFVQGKSIDVACHPGYALPKAQTTVTCMENGWSPTPRCIRVKTCSKSSIDIENGFISESQYTYALKEKAKYQCKLGYVTADGETSGSITCGKDGWSAQPTCIKSCDIPVFMNARTKNDFTWFKLNDTLDYECHDGYESNTGSTTGSIVCGYNGWSDLPICYERECELPKIDVHLVPDRKKDQYKVGEVLKFSCKPGFTIVGPNSVQCYHFGLSPDLPICKEQVQSCGPPPELLNGNVKEKTKEEYGHSEVVEYYCNPRFLMKGPNKIQCVDGEWTTLPVCIVEESTCGDIPELEHGWAQLSSPPYYYGDSVEFNCSESFTMIGHRSITCIHGVWTQLPQCVAIDKLKKCKSSNLIILEEHLKNKKEFDHNSNIRYRCRGKEGWIHTVCINGRWDPEVNCSMAQIQLCPPPPQIPNSHNMTTTLNYRDGEKVSVLCQENYLIQEGEEITCKDGRWQSIPLCVEKIPCSQPPQIEHGTINSSRSSQESYAHGTKLSYTCEGGFRISEENETTCYMGKWSSPPQCEGLPCKSPPEISHGVVAHMSDSYQYGEEVTYKCFEGFGIDGPAIAKCLGEKWSHPPSCIKTDCLSLPSFENAIPMGEKKDVYKAGEQVTYTCATYYKMDGASNVTCINSRWTGRPTCRDTSCVNPPTVQNAYIVSRQMSKYPSGERVRYQCRSPYEMFGDEEVMCLNGNWTEPPQCKDSTGKCGPPPPIDNGDITSFPLSVYAPASSVEYQCQNLYQLEGNKRITCRNGQWSEPPKCLHPCVISREIMENYNIALRWTAKQKLYSRTGESVEFVCKRGYRLSSRSHTLRTTCWDGKLEYPTCAKR
modifications: here or on the partner: malondialdehyde-acetaldehyde (MAA) / malondialdehyde (MDA) adducts; sites not stated
